Here are results for two molecules from PMC8079274, “Calmodulin influences MAPK signaling by binding KSR1” (The Journal of Biological Chemistry, 2021).

For one assay, the target named is T1, pure calmodulin (UniProt P0DP23 1-149).
T1 construct: Pure calmodulin from Ocean Biologics; also called purified calmodulin; CaM; source: bought: Ocean Biologics
Put plainly: pull-down; 2 μg pure calmodulin in lysis buffer B with 1 mM Ca^2+ with GST-KSR1 constructs on glutathione-Sepharose beads, 3 h at 4 °C; blot with anti-calmodulin. The note with it: both partners purified.

Assay [1] deals with T2, calmodulin-Sepharose (calmodulin coupled to Sepharose beads) (UniProt P0DP23 1-149).
T2 construct: Calmodulin coupled to Sepharose; also called CaM; source: bought: GE Healthcare (17-0529-01), calmodulin-Sepharose beads
Description: pull-down; 500 ng purified His-KSR1 with 30 μl calmodulin-Sepharose or GST-Sepharose, lysis buffer B (50 mM Tris-HCl pH 7.4, 150 mM NaCl, 1% Triton-X 100) with 1 mM CaCl2, 3 h at 4 °C; blot with anti-KSR1. The settings on record: both partners purified.

B1: GST-KSR1-M (amino acid residues 319–433) (domain or fragment)
chain: GSPQLVRRDIGLSVTHRFSTKSWLSQVCNVCQKSMIFGVKCKHCRLKCHNKCTKEAPACRITFLPLARLRRTESVPSDINNPVDRAAEPHFGTLPKALTKKEHPPAMNLDSSSNP
notes: Vector pGEX2T-TEV; also called M-fragment; pGEX2T-TEV-KSR1-M; source: E. coli, isolated with glutathione-Sepharose beads
B1: the binding result with pure calmodulin is reported as “binds”.

B2: His-tagged full-length KSR1 (kinase suppressor of Ras1) (natural protein)
chain: MDRAALRAAAMGEKKEGGGGGAAADGGAGAAVSRALQQCGQLQKLIDISIGSLRGLRTKCSVSNDLTQQEIRTLEAKLVKYICKQQQSKLSVTPSDRTAELNSYPRFSDWLYIFNVRPEVVQEIPQELTLDALLEMDEAKAKEMLRRWGASTEECSRLQQALTCLRKVTGLGGEHKMDSGWSSTDARDSSLGPPMDMLSSLGRAGASTQGPRSISVSALPASDSPVPGLSEGLSDSCIPLHTSGRLTPRALHSFITPPTTPQLRRHAKLKPPRTPPPPSRKVFQLLPSFPTLTRSKSHESQLGNRIDDVTPMKFELPHGSPQLVRRDIGLSVTHRFSTKSWLSQVCNVCQKSMIFGVKCKHCRLKCHNKCTKEAPACRITFLPLARLRRTESVPSDINNPVDRAAEPHFGTLPKALTKKEHPPAMNLDSSSNPSSTTSSTPSSPAPFLTSSNPSSATTPPNPSPGQRDSRFSFPDISACSQAAPLSSTADSTRLDDQPKTDVLGVHEAEAEEPEAGKSEAEDDEEDEVDDLPSSRRPWRGPISRKASQTSVYLQEWDIPFEQVELGEPIGQGRWGRVHRGRWHGEVAIRLLEMDGHNQDHLKLFKKEVMNYRQTRHENVVLFMGACMNPPHLAIITSFCKGRTLHSFVRDPKTSLDINKTRQIAQEIIKGMGYLHAKGIVHKDLKSKNVFYDNGKVVITDFGLFGISGVVREERRENQLKLSHDWLCYLAPEIVREMIPGRDEDQLPFSKAADVYAFGTVWYELQARDWPFKHQPAEALIWQIGSGEGVRRVLASVSLGKEVGEILSACWAFDLQERPSFSLLMDMLERLPKLNRRLSHPGHFWKSADINSSKVMPRFERFGLGTLESGNPKM
notes: Kinase suppressor of Ras1 (KSR1), full length; Plasmid pTrace-His-KSR1 was a gift (Piero Crespo); the construct is not described further; also called His-KSR1; purified KSR1; source: 90% pure
For B2, the binding result in assay [1] is “binds”.
